This assay deals with T1, Endogenous TRPM2 of mouse brain and cultured mouse cortical neurons (mouse, UniProt Q91YD4 1-1506).
T1 construct: whole, on cells
In words: co-IP with anti-TRPM2, western blot, PKCγ/TRPM2 ratio, brain tissue. The method, then: Thus, whether PKC interacts with TRPM2 was investigated.
NP-40 lysis buffer ([…], 150 mM NaCl, 1 mM EDTA, 50 mM Tris, pH=8.0) containing proteinase inhibitors (Sigma-Aldrich, 539131-10VL) and phosphatase inhibitors (Thermal Fisher Scientific, 78428) was used to lyse both cultured cells and frozen brain tissue. For transfected cells, proteins were extracted 36 hours after transfection. Cell and tissue lysate were lysed by ultrasound using an ultrasonic cleaner (Thermal Fisher Scientific) filled with ice-cold water for 30 min. After incubated on ice for 1 h, lysate was centrifuged at 13000 g for 30 min and supernatant was collected. Protein concentration was measured using Pierce™ Rapid Gold BCA Protein Assay Kit (Thermal Fisher Scientific, A53225). 300 μg of protein was taken and diluted using NP-40 lysis buffer to make a total volume of 500 μl. Unused protein was allocated and frozen at −80° C. for future use. Appropriate amount of antibody was added based on instruction. After protein-antibody mixture was incubated on ice for 2 h, 25 μL of pre-washed Protein A/G PLUS-Agarose (Santa Cruz Biotechnology, sc-2003) was added, and the whole mixture was incubated at 4° C. for overnight. Then the mixture was centrifuged at 2500 g for Imin to get agarose beads. […] Then samples were ready for western blotting analysis.

T1 sequence (Q91YD4 whole entry): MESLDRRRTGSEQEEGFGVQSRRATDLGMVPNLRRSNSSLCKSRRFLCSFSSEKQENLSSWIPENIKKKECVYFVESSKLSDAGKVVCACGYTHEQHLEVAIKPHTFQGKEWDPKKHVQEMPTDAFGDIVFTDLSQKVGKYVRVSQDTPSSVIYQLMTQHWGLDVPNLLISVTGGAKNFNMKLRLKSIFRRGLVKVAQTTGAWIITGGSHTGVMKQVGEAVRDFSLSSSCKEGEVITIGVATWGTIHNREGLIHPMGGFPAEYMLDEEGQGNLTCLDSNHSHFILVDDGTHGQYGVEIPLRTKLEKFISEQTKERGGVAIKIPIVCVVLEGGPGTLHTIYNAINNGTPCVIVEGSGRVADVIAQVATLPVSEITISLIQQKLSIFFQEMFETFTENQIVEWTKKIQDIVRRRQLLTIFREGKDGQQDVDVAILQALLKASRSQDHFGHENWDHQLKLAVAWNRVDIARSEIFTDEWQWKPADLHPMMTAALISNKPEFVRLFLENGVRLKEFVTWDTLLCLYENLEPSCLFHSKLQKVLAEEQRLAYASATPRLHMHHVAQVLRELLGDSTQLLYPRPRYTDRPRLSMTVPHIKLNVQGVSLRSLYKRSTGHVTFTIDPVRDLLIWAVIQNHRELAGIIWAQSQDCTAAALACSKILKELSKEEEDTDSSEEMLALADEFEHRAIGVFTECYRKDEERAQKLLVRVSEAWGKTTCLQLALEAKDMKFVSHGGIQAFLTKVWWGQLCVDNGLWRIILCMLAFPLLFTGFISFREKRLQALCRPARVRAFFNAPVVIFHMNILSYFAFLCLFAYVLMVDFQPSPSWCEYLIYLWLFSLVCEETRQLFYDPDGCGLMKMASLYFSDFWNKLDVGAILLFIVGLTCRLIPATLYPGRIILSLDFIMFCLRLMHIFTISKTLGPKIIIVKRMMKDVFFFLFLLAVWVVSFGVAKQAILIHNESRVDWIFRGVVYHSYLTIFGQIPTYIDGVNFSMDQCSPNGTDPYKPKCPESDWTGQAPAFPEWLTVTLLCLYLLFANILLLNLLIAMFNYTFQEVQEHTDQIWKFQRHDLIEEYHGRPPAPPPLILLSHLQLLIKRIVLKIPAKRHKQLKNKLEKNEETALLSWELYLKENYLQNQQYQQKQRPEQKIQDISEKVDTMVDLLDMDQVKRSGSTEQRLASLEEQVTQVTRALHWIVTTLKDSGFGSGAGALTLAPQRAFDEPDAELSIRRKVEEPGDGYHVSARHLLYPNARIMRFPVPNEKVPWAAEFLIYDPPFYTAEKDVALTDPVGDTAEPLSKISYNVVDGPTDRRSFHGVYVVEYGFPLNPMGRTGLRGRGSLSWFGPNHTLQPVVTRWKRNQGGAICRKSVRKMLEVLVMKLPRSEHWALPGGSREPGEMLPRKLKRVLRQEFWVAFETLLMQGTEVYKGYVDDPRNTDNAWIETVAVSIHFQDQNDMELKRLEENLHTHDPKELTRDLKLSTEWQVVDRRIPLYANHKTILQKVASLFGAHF

B1: Endogenous PKCγ of mouse brain and cultured mouse cortical neurons (enzyme)
chain: not shown
notes: whole, on cells; also called neuron-specific PKC
Take B1: the “amount of PKCγ pulled down by anti-TRPM2, MCAO against sham mice” value is about 1.5 fold.

The values are drawn from US20250235501A1 (UNIVERSITY OF CONNECTICUT, published 2025).
